These results are taken from the RNAGym collection of RNA variant scans (doi:10.1073/pnas.2313332121).

First the molecules themselves.
B1: TPR t1 (parent)
chain: GACCAAUCUGCCCUCAGAGCUCGAGAACAUCUUCGGAUGCAGAGGAGGCAGGCUUCGGUGGCGCGAUAGCGCCAACGUCCUCAACCUCCAAUGCAUCCCACCACAUGAUGAUGCCUGAAGAGCCUUGGUUUUUUG

In this data set the parent is B1. The data set is described as follows: polymerase ribozyme fitness, log enrichment relative to wild type (log ratio); higher = more active; in vitro selection for triplet polymerase activity. The gist of the method:
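To select mutant libraries of each subunit of a heterodimeric triplet polymerase ribozyme, built by PCR and transcribed, each was annealed with a biotinylated primer, partner subunit and triplets, then incubated frozen at −7 °C. Extended constructs were gel-excised, captured on streptavidin beads and amplified by RT-PCR, in one round carried out in triplicate. Illumina sequencing of input and output libraries kept genotypes with ≥10 input reads and ≥1 read per output. Fitness is the base-2 logarithm of genotype enrichment relative to wild-type enrichment, from inverse-variance-weighted replicate averages.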
As to GACCAAUCUGCCCUCAGAGCUCGAGAACAUCUUCGGAUGCAGAGGAGGCAGGCUUCGGUGGCGCGAUAGCGUCAACGUCCUCAACCUCCAAUGCAUUCCACCACACGGUGAUGCCUGAAGAGCCUUGGUUUUUUG [C72U C97U U106C A108G], the “polymerase ribozyme fitness (log ratio)” value was -6.08.
In the case of GACCAAUCUGCCCUCAGAGCUCGAGAACAUCUUCGGAUGCAGAGGAGGCAGGCUUCGGUGGCGCGAUAGCGGCAACGUCCUCAACCUCCAAUGCAUCCCACCACAUGAUGAAGCCUGAAGAGCCUUGGAUUUUUG [C72G U112A U129A], the “polymerase ribozyme fitness (log ratio)” value came out at 0.0162.
Turning to GACCAAUCUGCCCUCAGAGCUCGAGAACAUCUUCGGAUGCAGAGGAGGCAGGCUUCGGUGGCGCGAUAGCGUCAACGUCCUCAACCUCCAAUGGAUCCCACCGCAUGAUGAUUCCUGAAGAGCCUAGGUUUUUUG [C72U C94G A103G G113U U126A], the “polymerase ribozyme fitness (log ratio)” value is -5.45.
As for GACCAAUCUGCCCUCAGAGCUCGAGAACAUCUUCGGAUGCAGAGGAGGCAGGCUUCGGUGGCGCGAUAGCGUCUACGUCCUCAACCUCCAAUGCAUCCCACCACAAGAUGAUGCCUGAAGAGCCUUAGUUUUUUG [C72U A74U U106A G127A], the “polymerase ribozyme fitness (log ratio)” value was -1.68.
Regarding GACCAAUCUGCCCUCAGAGCUCGAGAACAUCUUCGGAUGCAGAGGAGGCAGGCUUCGGUGGCGCGAUAGCGUCAACGUCCUAAACCUCCAAUGCAUCCCACCACAUGAUGAUGCAUGAAGAGCCUUGGUUUUUUG [C72U C82A C115A], the “polymerase ribozyme fitness (log ratio)” value is -1.79.
Consider GACCAAUCUGCCCUCAGAGCUCGAGAACAUCUUCGGAUGCAGAGGAGGCAGGCUUCGGUGGCGCGAUAGCGUCAACGUCCUCAACCUCCAAUGCAUCCCACCACGUGAUGAUGCCUGAAGAGCCUUGGUUUUUUG [C72U A105G], for which the “polymerase ribozyme fitness (log ratio)” value is -3.04.
The value for GACCAAUCUGCCCUCAGAGCUCGAGAACAUCUUCGGAUGCAGAGGAGGCAGGCUUCGGUGGCGCGAUAGCGGCAACGUCCUCAACCUCCAACGCAUCCCACCACAUGAUGAUGCCUGAAGAGCCUUGGUUUUUUG [C72G U92C] was -1.36; that for GACCAAUCUGCCCUCAGAGCUCGAGAACAUCUUCGGAUGCAGAGGAGGCAGGCUUCGGUGGCGCGAUAGCGUCAACGUCCUCAACAUCCGAUGCAUCCCACCACAUGAUAAUGCCUGAAGAGCCUUGGUUUUUUG [C72U C86A A90G G110A] was -1.38.
For GACCAAUCUGCCCUCAGAGCUCGAGAACAUCUUCGGAUGCAGAGGAGGCAGGCUUCGGUGGCGCGAUAGCGUCAACGUCCUCAACCUCCAAUGCCUCCCACCACAUGAUGAUGCCUGAAGAGCCUUGGUUUUUUG [C72U A95C], the “polymerase ribozyme fitness (log ratio)” value was -0.818.
As to GACCAAUCUGCCCUCAGAGCUCGAGAACAUCUUCGGAUGCAGAGGAGGCAGGCUUCGGUGGCGCGAUAGCGUCAUCGUCCUCAACCUCCAAUGCAUCCCACCACAUGAUGAUGACUGAAGACCCUUGGUUUUUUG [C72U A75U C114A G122C], the “polymerase ribozyme fitness (log ratio)” value is -2.52.
For the variant GACCAAUCUGCCCUCAGAGCUCGAGAACAUCUUCGGAUGCAGAGGAGGCAGGCUUCGGUGGCGCGAUAGCGGCAACGUCCUCAACCGCCAAUGCAUCCCACCACAUGAUGAUGCCUAAAGAGCCUUGGUUUUUUG [C72G U87G G117A], the “polymerase ribozyme fitness (log ratio)” value is -2.09.
As to GACCAAUCUGCCCUCAGAGCUCGAGAACAUCUUCGGAUGCAGAGGAGGCAGGCUUCGGUGGCGCGAUAGCGUCAACGUCCUCAACCUCCAAUGAAUCCCACCACAUGAUGAUGCCUGAAGAGCCUUGGUUUUUUG [C72U C94A], the “polymerase ribozyme fitness (log ratio)” value was -1.26.
As to GACCAAUCUGCCCUCAGAGCUCGAGAACAUCUUCGGAUGCAGAGGAGGCAGGCUUCGGUGGCGCGAUAGCGGCAACGUCCUCAACCUCCAAUGCAUCCCACCACAUGAUGAUGCCUGAAGAGCCUGGGUUUUUUG [C72G U126G], the “polymerase ribozyme fitness (log ratio)” value is -2.09.
GACCAAUCUGCCCUCAGAGCUCGAGAACAUCUUCGGAUGCAGAGGAGGCAGGCUUCGGUGGCGCGAUAGCGUCAACGUCCUUAACCUCCAAUGCAUCUCACCACAUGAUGAUGCCUGAGGAGCCUUGGUUUUUUG [C72U C82U C98U A119G]: the “polymerase ribozyme fitness (log ratio)” value was -0.0419.
As for GACCAAUCUGCCCUCAGAGCUCGAGAACAUCUUCGGAUGCAGAGGAGGCAGGCUUCGGUGGCGCGAUAGCGUCAACGUCCUCAAUCUCCAAUGCAUCCCACCACAUGAUGAUGCCUGAAGAGCCUUGGUUUUUUG [C72U C85U], the “polymerase ribozyme fitness (log ratio)” value was -1.48.
Then GACCAAUCUGCCCUCAGAGCUCGAGAACAUCUUCGGAUGCAGAGGAGGCAGGCUUCGGUGGCGCGAUAGCGUCAACGUCCUCAACAUCCAAUGCAUCCCACCCCAUGAUGAUGCCUGAAGAGCCUUGGUUUUUUG [C72U C86A A103C], with -5.58; and GACCAAUCUGCCCUCAGAGCUCGAGAACAUCUUCGGAUGCAGAGGAGGCAGGCUUCGGUGGCGCGAUAGCGUCAACGUCCUCAACUUCCAAUGCAUCCCACCACAUGAUGAUGCCUGAAGAGCCUGGGUUUUUUG [C72U C86U U126G], with -2.65; and GACCAAUCUGCCCUCAGAGCUCGAGAACAUCUUCGGAUGCAGAGGAGGCAGGCUUCGGUGGCGCGAUAGCGUCAACGUCCUCAACCUCCAAUGCAUCCUACCACAUGAUGAUGCCUGAAGAGCCUUGGUUUUUUG [C72U C99U], with -3.71.
GACCAAUCUGCCCUCAGAGCUCGAGAACAUCUUCGGAUGCAGAGGAGGCAGGCUUCGGUGGCGCGAUAGCGGCAACGUCCUCAACCUCCAAUGCAUCCCACCACAUGAUGAUGCCUGAAGAGCCGUGGUUUUUUG [C72G U125G]: the “polymerase ribozyme fitness (log ratio)” value is -1.12.
With GACCAAUCUGCCCUCAGAGCUCGAGAACAUCUUCGGAUGCAGAGGAGGCAGGCUUCGGUGGCGCGAUAGCGUCAACGUCCUCUACCUCCAAUGCAUCUCACCACAUGAUGAUGCCUGAAGAGCCUUGGUUUUUUG [C72U A83U C98U], the “polymerase ribozyme fitness (log ratio)” value was -0.271.
As for GACCAAUCUGCCCUCAGAGCUCGAGAACAUCUUCGGAUGCAGAGGAGGCAGGCUUCGGUGGCGCGAUAGCGGCAACGUCCUCAACCUCCAAUGCAUCCCACCACAUGAUGAUGCCUGAAGAGCCUUGGUUGUUUG [C72G U131G], the “polymerase ribozyme fitness (log ratio)” value was -0.31.
